Results taken from PMC4945878.

Legend:
Claspin Cdel1 = Claspin Cdel1 (human, UniProt Q9HAW4 1-985+=GS+1210-1339, internal_change); assay: EMSA; higher affinity than full-length; 10 mM Tris-HCl pH 7.5, 40 ug/ml BSA, 1 mM DTT, EDTA (50 mM as printed for EMSA; 0.5 mM for filter binding), 20 mM K-glutamate, 8% glycerol, 30 C, 1 h
[1] = molecular target: Claspin wild-type full-length (human, UniProt Q9HAW4 1-1339); assay: EMSA; 0.5 and 1.0 pmol protein, 20 fmol DNA; much lower affinity than C-terminal deletions; 10 mM Tris-HCl pH 7.5, 40 ug/ml BSA, 1 mM DTT, EDTA (50 mM as printed for EMSA; 0.5 mM for filter binding), 20 mM K-glutamate, 8% glycerol, 30 C, 1 h
[2] = molecular target: Claspin #25 (N-terminal polypeptide) (human, UniProt Q9HAW4 1-896); assay: EMSA; plus #13 DE/A (aa897-1209) 1.5 or 3 pmol, no significant inhibition; 10 mM Tris-HCl pH 7.5, 40 ug/ml BSA, 1 mM DTT, EDTA (50 mM as printed for EMSA; 0.5 mM for filter binding), 20 mM K-glutamate, 8% glycerol, 30 C, 1 h
Claspin Cdel2 = Claspin Cdel2 (human, UniProt Q9HAW4 1-1339, del1101-1209); assay: EMSA; higher binding than full-length; 10 mM Tris-HCl pH 7.5, 40 ug/ml BSA, 1 mM DTT, EDTA (50 mM as printed for EMSA; 0.5 mM for filter binding), 20 mM K-glutamate, 8% glycerol, 30 C, 1 h

Measured: binding result

Claspin #25 (N-terminal polypeptide), sequence (Q9HAW4 1-896): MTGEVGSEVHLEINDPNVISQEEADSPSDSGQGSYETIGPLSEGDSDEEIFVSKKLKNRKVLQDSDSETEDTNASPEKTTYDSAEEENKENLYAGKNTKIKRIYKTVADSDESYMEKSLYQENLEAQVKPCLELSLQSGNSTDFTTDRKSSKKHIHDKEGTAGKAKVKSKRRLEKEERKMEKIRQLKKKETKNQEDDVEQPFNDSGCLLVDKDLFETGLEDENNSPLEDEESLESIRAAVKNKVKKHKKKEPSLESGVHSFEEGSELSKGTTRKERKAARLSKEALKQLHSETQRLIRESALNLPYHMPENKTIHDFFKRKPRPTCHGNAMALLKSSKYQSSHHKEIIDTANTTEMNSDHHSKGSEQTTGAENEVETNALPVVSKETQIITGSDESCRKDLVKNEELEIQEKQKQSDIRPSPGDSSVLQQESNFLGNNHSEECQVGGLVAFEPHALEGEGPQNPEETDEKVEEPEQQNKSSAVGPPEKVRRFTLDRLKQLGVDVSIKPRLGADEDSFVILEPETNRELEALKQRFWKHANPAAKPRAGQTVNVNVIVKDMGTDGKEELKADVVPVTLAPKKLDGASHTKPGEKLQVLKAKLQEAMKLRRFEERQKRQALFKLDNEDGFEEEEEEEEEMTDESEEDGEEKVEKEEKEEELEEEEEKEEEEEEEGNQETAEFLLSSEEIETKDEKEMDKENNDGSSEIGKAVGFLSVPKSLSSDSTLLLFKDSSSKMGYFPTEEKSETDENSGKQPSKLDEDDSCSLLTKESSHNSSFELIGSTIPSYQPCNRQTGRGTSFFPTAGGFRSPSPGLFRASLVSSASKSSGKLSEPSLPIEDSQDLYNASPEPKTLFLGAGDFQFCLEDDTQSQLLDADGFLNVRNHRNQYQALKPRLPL
Claspin Cdel1, sequence (Q9HAW4 other isoform, or with tags, fused parts or gaps): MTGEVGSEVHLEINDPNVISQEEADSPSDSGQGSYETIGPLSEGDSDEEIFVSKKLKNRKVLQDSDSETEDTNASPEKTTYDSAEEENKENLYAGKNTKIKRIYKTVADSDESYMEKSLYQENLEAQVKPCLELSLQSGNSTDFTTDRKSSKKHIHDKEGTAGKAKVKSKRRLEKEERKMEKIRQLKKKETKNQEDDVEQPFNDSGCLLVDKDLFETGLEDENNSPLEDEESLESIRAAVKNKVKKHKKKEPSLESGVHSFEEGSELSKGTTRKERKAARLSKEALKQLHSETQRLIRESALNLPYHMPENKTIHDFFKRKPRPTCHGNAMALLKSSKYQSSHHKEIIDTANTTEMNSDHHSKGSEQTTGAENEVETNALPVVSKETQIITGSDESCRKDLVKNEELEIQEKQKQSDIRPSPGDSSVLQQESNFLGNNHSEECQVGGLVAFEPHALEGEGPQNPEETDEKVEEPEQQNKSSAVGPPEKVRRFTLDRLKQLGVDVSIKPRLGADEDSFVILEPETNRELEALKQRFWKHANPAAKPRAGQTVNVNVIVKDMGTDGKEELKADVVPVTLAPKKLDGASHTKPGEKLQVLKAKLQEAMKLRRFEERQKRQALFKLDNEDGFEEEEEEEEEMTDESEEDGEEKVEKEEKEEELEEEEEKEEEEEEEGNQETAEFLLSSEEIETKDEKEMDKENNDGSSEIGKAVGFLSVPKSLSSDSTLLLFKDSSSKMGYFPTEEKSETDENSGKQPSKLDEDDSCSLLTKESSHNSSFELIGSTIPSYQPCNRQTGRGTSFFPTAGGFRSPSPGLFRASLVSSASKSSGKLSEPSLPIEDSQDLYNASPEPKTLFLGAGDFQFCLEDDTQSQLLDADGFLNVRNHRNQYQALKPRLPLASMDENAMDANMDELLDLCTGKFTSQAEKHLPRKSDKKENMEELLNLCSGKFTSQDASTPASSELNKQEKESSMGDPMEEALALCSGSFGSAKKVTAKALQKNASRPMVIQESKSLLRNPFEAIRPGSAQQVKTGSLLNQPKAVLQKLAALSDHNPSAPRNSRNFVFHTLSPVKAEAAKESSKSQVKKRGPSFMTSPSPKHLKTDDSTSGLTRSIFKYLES
Claspin Cdel2, sequence (Q9HAW4 other isoform, or with tags, fused parts or gaps del1101-1209): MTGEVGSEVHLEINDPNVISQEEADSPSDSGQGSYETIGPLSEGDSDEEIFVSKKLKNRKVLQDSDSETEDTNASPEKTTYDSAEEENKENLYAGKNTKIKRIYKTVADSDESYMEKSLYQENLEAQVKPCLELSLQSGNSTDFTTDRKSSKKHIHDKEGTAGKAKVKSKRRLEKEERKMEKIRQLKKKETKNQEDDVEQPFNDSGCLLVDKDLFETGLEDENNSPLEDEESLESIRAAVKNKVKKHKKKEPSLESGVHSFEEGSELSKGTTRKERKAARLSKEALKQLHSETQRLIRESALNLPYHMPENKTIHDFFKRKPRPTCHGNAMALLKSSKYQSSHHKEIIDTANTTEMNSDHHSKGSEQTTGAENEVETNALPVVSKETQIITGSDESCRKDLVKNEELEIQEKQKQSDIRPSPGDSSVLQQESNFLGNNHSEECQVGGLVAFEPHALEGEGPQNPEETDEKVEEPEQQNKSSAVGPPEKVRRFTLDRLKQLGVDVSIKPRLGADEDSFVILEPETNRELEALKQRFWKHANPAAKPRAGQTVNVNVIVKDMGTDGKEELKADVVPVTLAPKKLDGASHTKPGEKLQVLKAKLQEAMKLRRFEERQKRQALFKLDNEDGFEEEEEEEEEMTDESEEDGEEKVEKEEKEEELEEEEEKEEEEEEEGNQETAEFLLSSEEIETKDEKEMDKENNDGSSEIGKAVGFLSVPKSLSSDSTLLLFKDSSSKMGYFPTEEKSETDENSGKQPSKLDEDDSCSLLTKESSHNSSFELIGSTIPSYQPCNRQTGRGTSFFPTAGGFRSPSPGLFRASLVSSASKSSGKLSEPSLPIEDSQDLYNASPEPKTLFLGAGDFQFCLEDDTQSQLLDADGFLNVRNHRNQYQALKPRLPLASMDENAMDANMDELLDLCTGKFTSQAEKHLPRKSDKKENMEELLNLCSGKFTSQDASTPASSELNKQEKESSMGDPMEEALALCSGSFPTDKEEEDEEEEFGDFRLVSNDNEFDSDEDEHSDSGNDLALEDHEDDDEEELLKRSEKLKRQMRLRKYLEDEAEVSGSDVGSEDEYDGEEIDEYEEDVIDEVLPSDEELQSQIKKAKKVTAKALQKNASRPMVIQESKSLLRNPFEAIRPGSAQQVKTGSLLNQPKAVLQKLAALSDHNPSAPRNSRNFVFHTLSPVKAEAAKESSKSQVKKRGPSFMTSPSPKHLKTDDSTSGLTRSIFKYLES
Claspin wild-type full-length, sequence (Q9HAW4 whole entry, the tested form may be a part): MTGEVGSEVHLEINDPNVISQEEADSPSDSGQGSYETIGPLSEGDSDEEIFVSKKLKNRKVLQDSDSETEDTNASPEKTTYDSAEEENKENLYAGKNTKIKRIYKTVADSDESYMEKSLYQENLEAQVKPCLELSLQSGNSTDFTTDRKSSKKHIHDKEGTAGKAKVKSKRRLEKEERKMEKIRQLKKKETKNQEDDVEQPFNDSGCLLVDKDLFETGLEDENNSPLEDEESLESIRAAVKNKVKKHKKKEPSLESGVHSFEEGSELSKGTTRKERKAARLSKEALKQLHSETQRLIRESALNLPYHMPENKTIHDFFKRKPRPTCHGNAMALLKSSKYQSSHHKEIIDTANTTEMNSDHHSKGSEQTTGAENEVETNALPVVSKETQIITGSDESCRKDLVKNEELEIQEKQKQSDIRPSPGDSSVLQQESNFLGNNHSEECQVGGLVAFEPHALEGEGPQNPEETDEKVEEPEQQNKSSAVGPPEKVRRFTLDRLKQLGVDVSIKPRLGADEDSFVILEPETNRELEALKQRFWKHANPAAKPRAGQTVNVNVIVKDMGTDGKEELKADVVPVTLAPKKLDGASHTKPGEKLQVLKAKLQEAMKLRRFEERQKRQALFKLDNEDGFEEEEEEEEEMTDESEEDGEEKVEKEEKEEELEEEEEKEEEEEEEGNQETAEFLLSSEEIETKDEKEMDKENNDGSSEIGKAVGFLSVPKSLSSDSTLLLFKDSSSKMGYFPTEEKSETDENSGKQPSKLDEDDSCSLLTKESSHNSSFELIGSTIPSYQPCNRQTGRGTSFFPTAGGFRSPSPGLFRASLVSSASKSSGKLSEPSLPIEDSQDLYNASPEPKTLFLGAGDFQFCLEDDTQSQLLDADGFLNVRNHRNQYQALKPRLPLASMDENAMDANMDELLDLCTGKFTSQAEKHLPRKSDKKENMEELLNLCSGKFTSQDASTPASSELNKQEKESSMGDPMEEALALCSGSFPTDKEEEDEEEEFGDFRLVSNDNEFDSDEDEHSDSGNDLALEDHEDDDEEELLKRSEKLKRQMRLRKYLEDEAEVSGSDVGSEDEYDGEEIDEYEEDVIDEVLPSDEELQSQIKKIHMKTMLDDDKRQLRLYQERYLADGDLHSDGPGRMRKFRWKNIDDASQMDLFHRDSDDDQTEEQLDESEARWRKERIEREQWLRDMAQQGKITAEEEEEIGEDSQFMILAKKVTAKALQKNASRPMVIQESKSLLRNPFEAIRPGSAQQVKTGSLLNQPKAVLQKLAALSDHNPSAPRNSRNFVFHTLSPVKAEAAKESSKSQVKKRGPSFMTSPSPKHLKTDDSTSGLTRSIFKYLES

B1: Y-fork DNA (mixed)
DNA 1: AACGTCGTGACTGGGCACTTGATCGGCCAACCTTTTTTTTTTTTTTTTTTTTTTTTTTTTTTTT
DNA 2: TTTTTTTTTTTTTTTTTTTTTTTTTTTTTTTTGGTTGGCCGATCAAGTGCCCAGTCACGACGTT
binds: all assays above
